Results reported in patent publication US20050244864A1, “Development and use of fluorescent probes of unbound analytes” (priority 2004, published 2005).

Key:
Assay type in all cases: binding
[1] = Probe fluorescence ratio response to palmitate:BSA complex, relative to ADIFAB2 (ΔR/ΔRAD2); conditions: for DR/DR PA: palmitate (PA), response relative to ADIFAB2
Description: (§1) The intensity ratio (“R” value) for a given probe is determined. The ratio is calculated using the following formula: R=Fλ1/Fλ2 wherein, Fλ1, is the measured fluorescence intensities (intensity of sample with probe present minus intensity of sample without probe present) at wavelength 1 and Fλ2 is the measured fluorescence intensities (intensity of sample with probe present minus intensity of sample without probe present) at wavelength 2. Then, for a given probe, ΔR, the difference in R value between the measurement in the presence of the analyte and in the absence of the analyte, is calculated as follows: ΔR=R+analyte−R0 The ΔR value for a given probe is then compared to a reference probe, for example, ADIFAB or ADIFAB2, by ΔR/ΔRreference. This value is an indication of how dissimilar the new probe (derived by mutation of the template) is to the reference. By this method, probes with new and useful characteristics may be identified. Measurements of fluorescence intensities are obtained using standard techniques.
(§2) Mutant probes were screened in 96-well plates by fluorescence response to five fatty acids: arachidonate, linolenate, linoleate, oleate, and palmitate. Each fatty acid was prepared as a complex with BSA by slow addition of 50 mM stocks of fatty acid sodium salts at pH 11 to 600 μM BSA in HEPES buffer. During the formation of complexes, 15 μL aliquots were periodically measured with the reference probe, ADIFAB2, to determine the ΔR value upon excitation at 375 nm and fluorescence emission at 550 and 457 nm using a Fluorolog-3 spectrofluorometer (Jobin Yvon) (Richieri et al, Molecular and Cellular Biochemistry (1999), 192:87-94 & Richieri et al, J. Biol. Chem. (1996), 271:31068-31074). Complexes were prepared such that the final ΔR was approximately 0.4 which correspond to [FFAu] ranging from 100 to 1000 nM depending on FFA type. These complexes buffer or clamp the FFAu levels at fixed values and therefore ensure the accurate comparison of different probes with the same FFAu concentrations. In contrast, addition of FFAu alone (i.e. uncomplexed FFA) introduces considerable uncertainty in comparing different probes because the FFAu level will be affected by binding to the dispensing device, the walls of the multi-well plates and to the probe itself. Thus, the terms “buffer” and “clamp” as used in this particular context herein are taken to mean the ability of a carrier macromolecule to complex with an unbound metabolite so that the unbound metabolite is presented accurately for measurement purposes and is prevented from non-specific binding such as binding to laboratory apparatus.
(§3) Plates were prepared and read in two stages. First, complexes and fatty acid free BSA were diluted to 6 μM BSA in HEPES and added to the 96-well plate at 300 μL per well. A MultiProbe II HT (Perkin Elmer) (an automated liquid handling system) was used to facilitate plate preparation for high throughput screening, but any automated or manual pipetting system will suffice. The background fluorescence was then measured at the same wavelengths as used for ADIFAB2 using a Fluorolog-3 spectrofluorometer with an external Micromax 384 fluorescence plate reader (Jobin Yvon). In the second stage, 30 μL aliquots of the mutant probes were added to multiple wells of the plate, one for each fatty acid and one with fatty acid free BSA only, and the fluorescence intensity at each wavelength was again measured on the plate reader. After subtraction of the background fluorescence, the fluorescence ratio of each well was calculated.
(§4) The fluorescence response was quantitatively compared to ADIFAB2 to search for changes in magnitude and fatty acid profile; for example the response to one fatty acid relative to another. For each probe the ratio differences (AR) between wells with each fatty acid compared to a corresponding well with fatty acid free BSA were recorded. […]

[2] = Probe fluorescence ratio response to linolenate:BSA complex, relative to ADIFAB2 (ΔR/ΔRAD2); conditions: linolenate (LNA); response relative to ADIFAB2
Description: as §1, §2, §3, §4

[3] = Probe fluorescence ratio response to oleate:BSA complex, relative to ADIFAB2 (ΔR/ΔRAD2); conditions: oleate (OA); response relative to ADIFAB2
Description: as §1, §2, §3, §4

[4] = Probe fluorescence ratio response to linoleate:BSA complex, relative to ADIFAB2 (ΔR/ΔRAD2); conditions: linoleate (LA); response relative to ADIFAB2
Description: as §1, §2, §3, §4

[5] = Probe fluorescence ratio response to arachidonate:BSA complex, relative to ADIFAB2 (ΔR/ΔRAD2); conditions: arachidonate (AA); response relative to ADIFAB2
Description: as §1, §2, §3, §4

Molecule | response to palmitic acid [1] | DR/DR LNA [2] | DR/DR OA [3] | DR/DR LA [4] | DR/DR AA [5] | DR/DR PA [1]
VQQ: probe L72V R106Q R126Q of rI-FABP (protein, UniProt P02693 2-132, looked up, variant L72V R106Q R126Q, fluorescent label, probe L72V R106Q R126Q of rI-FABP) Fatty acid-binding protein, …: AFDGTWKVDRNENYEKFMEKMGINVVKRKLGAHDNLKLTITQEGNKFTVKESSNFRNIDVVFELGVDFAYSVADGTELTGTWTMEGNKLVGKFKRVDNGKELIAVQEISGNELIQTYTYEGVEAKQIFKKE | does not respond to palmitic acid | – | – | – | – | –
47T1, L72A (protein, UniProt P02693 2-132, looked up, variant F47T L72A, acrylodan label) Fatty acid-binding protein, …: AFDGTWKVDRNENYEKFMEKMGINVVKRKLGAHDNLKLTITQEGNKTTVKESSNFRNIDVVFELGVDFAYSAADGTELTGTWTMEGNKLVGKFKRVDNGKELIAVREISGNELIQTYTYEGVEAKRIFKKE | – | 0.74 | 0.74 | 0.77 | 0.68 | 0.46
11Q1, L72A (protein, UniProt P02693 2-132, looked up, variant N11Q L72A, acrylodan label) Fatty acid-binding protein, …: AFDGTWKVDRQENYEKFMEKMGINVVKRKLGAHDNLKLTITQEGNKFTVKESSNFRNIDVVFELGVDFAYSAADGTELTGTWTMEGNKLVGKFKRVDNGKELIAVREISGNELIQTYTYEGVEAKRIFKKE | – | 1.43 | 1.32 | 1.37 | 1.33 | 1.19
11I1, L72A (protein, UniProt P02693 2-132, looked up, variant N11I L72A, acrylodan label) Fatty acid-binding protein, …: AFDGTWKVDRIENYEKFMEKMGINVVKRKLGAHDNLKLTITQEGNKFTVKESSNFRNIDVVFELGVDFAYSAADGTELTGTWTMEGNKLVGKFKRVDNGKELIAVREISGNELIQTYTYEGVEAKRIFKKE | – | 0.51 | 0.39 | 0.55 | 0.58 | 1.19
47M2, L72A (protein, UniProt P02693 2-132, looked up, variant F47M L72A, acrylodan label) Fatty acid-binding protein, …: AFDGTWKVDRNENYEKFMEKMGINVVKRKLGAHDNLKLTITQEGNKMTVKESSNFRNIDVVFELGVDFAYSAADGTELTGTWTMEGNKLVGKFKRVDNGKELIAVREISGNELIQTYTYEGVEAKRIFKKE | – | 0.97 | 0.95 | 0.99 | 1.00 | 0.83
47H1, L72A (protein, UniProt P02693 2-132, looked up, variant F47H L72A, acrylodan label) Fatty acid-binding protein, …: AFDGTWKVDRNENYEKFMEKMGINVVKRKLGAHDNLKLTITQEGNKHTVKESSNFRNIDVVFELGVDFAYSAADGTELTGTWTMEGNKLVGKFKRVDNGKELIAVREISGNELIQTYTYEGVEAKRIFKKE | – | 0.70 | 0.67 | 0.74 | 0.63 | 0.43
11F1, L72A (protein, UniProt P02693 2-132, looked up, variant N11F L72A, acrylodan label) Fatty acid-binding protein, …: AFDGTWKVDRFENYEKFMEKMGINVVKRKLGAHDNLKLTITQEGNKFTVKESSNFRNIDVVFELGVDFAYSAADGTELTGTWTMEGNKLVGKFKRVDNGKELIAVREISGNELIQTYTYEGVEAKRIFKKE | – | 0.29 | 0.20 | 0.28 | 0.42 | 0.18
11D1, L72A (protein, UniProt P02693 2-132, looked up, variant N11D L72A, acrylodan label) Fatty acid-binding protein, …: AFDGTWKVDRDENYEKFMEKMGINVVKRKLGAHDNLKLTITQEGNKFTVKESSNFRNIDVVFELGVDFAYSAADGTELTGTWTMEGNKLVGKFKRVDNGKELIAVREISGNELIQTYTYEGVEAKRIFKKE | – | 0.86 | 0.92 | 0.91 | 0.82 | 0.83
40V1, L72A (protein, UniProt P02693 2-132, looked up, variant I40V L72A, acrylodan label) Fatty acid-binding protein, …: AFDGTWKVDRNENYEKFMEKMGINVVKRKLGAHDNLKLTVTQEGNKFTVKESSNFRNIDVVFELGVDFAYSAADGTELTGTWTMEGNKLVGKFKRVDNGKELIAVREISGNELIQTYTYEGVEAKRIFKKE | – | 1.28 | 1.21 | 1.24 | 1.20 | 0.91
14Y, 72A wt (protein, UniProt P02693 2-132, looked up, variant L72A, acrylodan label) Fatty acid-binding protein, …: AFDGTWKVDRNENYEKFMEKMGINVVKRKLGAHDNLKLTITQEGNKFTVKESSNFRNIDVVFELGVDFAYSAADGTELTGTWTMEGNKLVGKFKRVDNGKELIAVREISGNELIQTYTYEGVEAKRIFKKE | – | 1.29 | 2.22 | 1.23 | 1.29 | 1.07
11S5, L72A (protein, UniProt P02693 2-132, looked up, variant N11S L72A, acrylodan label) Fatty acid-binding protein, …: AFDGTWKVDRSENYEKFMEKMGINVVKRKLGAHDNLKLTITQEGNKFTVKESSNFRNIDVVFELGVDFAYSAADGTELTGTWTMEGNKLVGKFKRVDNGKELIAVREISGNELIQTYTYEGVEAKRIFKKE | – | 0.37 | 0.29 | 0.36 | 0.33 | 0.35
47G1, L72A (protein, UniProt P02693 2-132, looked up, variant F47G L72A, acrylodan label) Fatty acid-binding protein, …: AFDGTWKVDRNENYEKFMEKMGINVVKRKLGAHDNLKLTITQEGNKGTVKESSNFRNIDVVFELGVDFAYSAADGTELTGTWTMEGNKLVGKFKRVDNGKELIAVREISGNELIQTYTYEGVEAKRIFKKE | – | 0.63 | 0.59 | 0.66 | 0.51 | 0.32
11W1, L72A (protein, UniProt P02693 2-132, looked up, variant N11W L72A, acrylodan label) Fatty acid-binding protein, …: AFDGTWKVDRWENYEKFMEKMGINVVKRKLGAHDNLKLTITQEGNKFTVKESSNFRNIDVVFELGVDFAYSAADGTELTGTWTMEGNKLVGKFKRVDNGKELIAVREISGNELIQTYTYEGVEAKRIFKKE | – | 0.39 | 0.22 | 0.40 | 0.43 | 0.15
47S1, L72A (protein, UniProt P02693 2-132, looked up, variant F47S L72A, acrylodan label) Fatty acid-binding protein, …: AFDGTWKVDRNENYEKFMEKMGINVVKRKLGAHDNLKLTITQEGNKSTVKESSNFRNIDVVFELGVDFAYSAADGTELTGTWTMEGNKLVGKFKRVDNGKELIAVREISGNELIQTYTYEGVEAKRIFKKE | – | 0.69 | 0.64 | 0.66 | 0.61 | 0.34
47C3, L72A (protein, UniProt P02693 2-132, looked up, variant F47C L72A, acrylodan label) Fatty acid-binding protein, …: AFDGTWKVDRNENYEKFMEKMGINVVKRKLGAHDNLKLTITQEGNKCTVKESSNFRNIDVVFELGVDFAYSAADGTELTGTWTMEGNKLVGKFKRVDNGKELIAVREISGNELIQTYTYEGVEAKRIFKKE | – | 0.35 | 0.35 | 0.37 | 0.32 | 0.23
40F2, L72A (protein, UniProt P02693 2-132, looked up, variant I40F L72A, acrylodan label) Fatty acid-binding protein, …: AFDGTWKVDRNENYEKFMEKMGINVVKRKLGAHDNLKLTFTQEGNKFTVKESSNFRNIDVVFELGVDFAYSAADGTELTGTWTMEGNKLVGKFKRVDNGKELIAVREISGNELIQTYTYEGVEAKRIFKKE | – | 0.99 | 0.90 | 0.90 | 0.89 | 0.80
